Experimental data: US7910550B2, “Human kunitz-type inhibitor with enhanced antifibrinolytic activity” (STC.UNM, priority 2004, dated 2011)

Experiments:
[1] = system: human colorectal cancer cell line (Colo-205); assay: Caspase activation in Colo-205 cells; format: cell-based; details: 48 hour exposure, 1 μM
[2] = system: human umbilical vein endothelial cells (HUVECs); assay: In vitro human endothelial cell angiogenesis assay (capillary tube formation on ECMATRIX); format: cell-based; details: for inhibition of angiogenesis (capillary-like tube formation): HUVECs on matrix
Excerpt: The angiogenesis assay is commercially available from Chemicon International, Inc. (Temecula, Calif.), and involves growing human umbilical vein endothelial cells (HUVECs) on a proprietary matrix, followed by assessing angiogenesis on this matrix by counting new branch points in sprouting endothelial cells.
A semi-quantitative assay for in vitro angiogenesis was utilized. Human umbilical vein endothelial cells (HUVEC, Clonetics Corp., Walkersville, Md.) were maintained in 25 cm^2 flasks in EGM-2 media (Clonetics Corp.) supplemented with 2% fetal bovine serum, gentamicin, amphotericin-B, hEGF, hydrocortisone, VEGF, hFGF-B, R^3-IGF-1, ascorbic acid and heparin. For assay, a 48-well tissue culture plate was coated with 100 μl of ECMATRIX (Chemicon International, Inc., Temecula, Calif.) followed by incubation at 37° C. for one hour. Approximately 5×10^4 cells were then seeded onto the surface of the polymerized matrix. Varying concentrations of full-length human TFPI-2, diluted in EGM-2 media and filtered, were added to the wells and plate was placed in 37° C.-humidified CO2 incubator. Each treatment was performed in duplicate wells. Separately, VEGF was used as a positive control. The three-dimensional organization of cells was examined every hour under an inverted photomicroscope. The capillary tube branch point formation was counted in each well following eight hours of incubation. For each concentration, eight randomly chosen areas under 250× magnified field were observed. The results are expressed as number of branching points (mean±SEM) and the differences between each mean value was tested by one way analysis of variance (ANOVA). Statistically p-value <0.05 was accepted.
To examine the effect of full-length human TFPI-2 on morphogenesis (capillary-like tube formation) of endothelial cells, HUVECs were seeded on the matrigel and treated with full-length human TFPI-2 (0.2 μM-5 μM).

[3] = system: VEGF-induced angiogenesis; assay: VEGF-induced chorioallantoic membrane assay; format: in vivo; details: preliminary studies
[4] = system: FGF-2-induced angiogenesis; assay: FGF-2-induced cornea pocket assay; format: in vivo; details: preliminary studies
[5] = system: HT-1080 fibrosarcoma xenografts; format: in vivo, SCID mice
Protocol: The relative mRNA abundance in the snap-frozen tumor xenograft samples was assessed by oligonucleotide-based microarray analysis using an Affymetrix […] Human Genome U133 set (Affymetrix, Inc., Santa Clara, Calif.). This microarray consists of two array units of over one million unique oligonucleotide features covering over 39,000 transcript variants that represent 33,000 of the best characterized human genes. Additional information regarding these chips is available on-line at the Affymetrix, Inc. website. Biotinylated cRNA probe preparation, processing, hybridization and normalization were performed as described in the Affymetrix […] Expression Analysis Manual. Florescence images were captured using a gene array scanner (Affymetrix, Inc., Santa Clara, Calif.) and expression analysis was performed using GeneSpring v5.1 software. The wild-type TFPI-2 transfected (WT) tumor ratio of medians was normalized with that obtained from mock-transfected (MT) tumors.

[6] = TFPI-2 expressing tumors over mock-transfected tumors
[7] = human fibrosarcomas secreting wild-type human TFPI-2

B1: R24K KD1: KD1 with lysine in place of arginine at position 24 (SEQ ID NO:3) (protein)
chain: DAAQEPTGNNAEICLLPLDYGPCKALLLRYYYDRYTQSCRQFLYGGCEGNANNFYTWEACDDACWRIEKVPKV
modifications: mutated active domain
- caspase activation [1]: caspase activation

B2: TFPI-2: Human tissue factor pathway inhibitor-2, 213 amino acid polypeptide with three tandem Kunitz-type domains (SEQ ID NO:1) (protein, listed as Homo sapiens)
chain: DAAQEPTGNNAEICLLPLDYGPCRALLLRYYYDRYTQSCRQFLYGGCEGNANNFYTWEACDDACWRIEKVPKVCRLQVSVDDQCEGSTEKYFFNLSSMTCEKFFSGGCHRNRIENRFPDEATCMGFCAPKKIPSFCYSPKDEGLCSANVTRYYFNPRYRTCDAFTYTGCGGNDNNFVSREDCKRACAKALKKKKKMPKLRFASRIRKIRKKQF
- capillary-like tube formation ([2]; 5 μM, overnight incubation): no complete tube formation even after overnight incubation
- inhibition of angiogenesis (capillary-like tube formation) [2]: significantly inhibited the capillary-like tube formation of HUVECs in a dose-dependent manner
- inhibition of angiogenesis (capillary-like tube formation) ([2]; listed as wild-type TFPI-2): inhibit angiogenesis
- anti-angiogenic effect [3]: potent and dose-dependent anti-angiogenic effect
- anti-angiogenic effect [4]: potent and dose-dependent anti-angiogenic effect
- Fold Change mRNA: Erythropoietin-producing hepatocyte kinase, EphB6 (NM_004445) [5]: −2.38 fold
- Fold Change mRNA: ADAM-TS2 (NM_021599) [5, 6]: −4.62 fold
- Fold Change mRNA: Alpha 1 chain of Type XII Collagen (AA669336) [5, 6]: +7.26 fold
- Fold Change mRNA: Aquaporin 1 (NM_000385) [5, 6]: +2.30 fold
- Fold Change mRNA: Biglycan (BC002416) [5, 6]: −2.29 fold
- Fold Change mRNA: Bone morphogenetic protein 4 (D30751) [5, 6]: +2.79 fold
- Fold Change mRNA: COUP-transcription factor (X16155) [5, 6]: −2.79 fold
- Fold Change mRNA: CUB domain-containing protein 1 (CDCP1) (NM_022842) [5, 6]: −18.70 fold
- Fold Change mRNA: Cell death regulator Aven (NM_020371) [5, 6]: −2.11 fold
- Fold Change mRNA: Chondroitin sulfate proteoglycan 2 (versican) (D32039) [5, 6]: −2.13 fold
- Fold Change mRNA: Collagen, type 1, alpha 1 (NM_000088) [5, 6]: +3.51 fold
- Fold Change mRNA: Cytidine deaminase (NM_001785) [5, 6]: +35.30 fold
- Fold Change mRNA: EEF1A2, Eukaryotic translation elongation factor 1 alpha 2 (NM_001958) [5, 6]: +6.85 fold
- Fold Change mRNA: EGF-TM7-latrophilin-related protein (NM_022159) [5, 6]: −2.92 fold
- Fold Change mRNA: EIF2Ak1, protein kinase, PKR (NM_002759) [5, 6]: +2.51 fold
- Fold Change mRNA: Endothelin receptor type A (AU118882, NM_001957) [5, 6]: −2.90 fold
- Fold Change mRNA: FLT, VEGFR1, Fms-related tyrosine kinase receptor (NM_002019) [5, 6]: −2.24 fold
- Fold Change mRNA: Fibronectin 1 (AJ276395) [5, 6]: −3.80 fold
- Fold Change mRNA: Formin like (FRL) (NM_005892) [5, 6]: −2.14 fold
- Fold Change mRNA: Helicase, Basic leucine zipper transcription factor-1 (NM_001186) [5, 6]: −2.11 fold
- Fold Change mRNA: Hemoglobin, epsilon 1, oxygen transport (NM_005330) [5, 6]: −7.63 fold
- Fold Change mRNA: Interleukin-8 (IL-8, C—X—CL8) (NM_000584) [5, 6]: −6.99 fold
- Fold Change mRNA: Junction plakoglobin (NM_021991) [5, 6]: −2.21 fold
- Fold Change mRNA: LIM domain binding 2 (NM_001290) [5, 6]: −5.20 fold
- Fold Change mRNA: LIM homeobox protein 6 (NM_014368) [5, 6]: +2.91 fold
- Fold Change mRNA: Ligase III, DNA (NM_013975) [5, 6]: +2.04 fold
- Fold Change mRNA: Lymphocyte antigen 75, gp200-MR6 (NM_002349) [5, 6]: +14.32 fold
- Fold Change mRNA: MAGE-A1, Melanoma antigen family A1 (NM_004988) [5, 6]: −2.95 fold
- Fold Change mRNA: Metastasis suppressor gene (NM_014751) [5, 6]: +2.06 fold
- Fold Change mRNA: N-Cadherin (M34064) [5, 6]: −2.13 fold
- Fold Change mRNA: Neuropeptide Y receptor (L01639) [5, 6]: −8.03 fold
- Fold Change mRNA: Nox 4, NADPH oxidase 4 (NM_016931) [5, 6]: −2.46 fold
- Fold Change mRNA: Oligophrenin 1 (NM_002547) [5, 6]: +2.95 fold
- Fold Change mRNA: PBX-2, Pre-B cell leukemia transcription factor-2 (NM_002586) [5, 6]: −2.75 fold
- Fold Change mRNA: Phenylalanine-tRNA synthetase (NM_006567) [5, 6]: +2.11 fold
- Fold Change mRNA: Phorbolin-like protein MDS019 (NM_021822) [5, 6]: +2.80 fold
- Fold Change mRNA: Protein tyrosine phosphatase, receptor type, U (U71075) [5, 6]: −2.48 fold
- Fold Change mRNA: Reversion-inducing-cysteine-rich protein with kazal motif (RECK) (NM_021111) [5, 6]: +2.64 fold
- Fold Change mRNA: S100 calcium-binding protein A4 (NM_002961) [5, 6]: +2.79 fold
- Fold Change mRNA: Tumor necrosis factor, alpha-induced protein 2 (NM_006291) [5, 6]: +2.98 fold
- Fold Change mRNA: Tumor protein D52-like 1 (NM_003287) [5, 6]: +2.10 fold
- Fold Change mRNA: Vascular endothelial growth factor C (U58111) [5, 6]: −2.41 fold
- Fold Change mRNA: Zinc finger protein 22 (KOX 15) (NM_006963, AA744771) [5, 6]: +29.27 fold
- Fold Change mRNA: Zinc finger protein 185 (LIM domain) (NM_006291) [5, 6]: +5.05 fold
- Fold Change mRNA: dermatopontin precursor (AI146848) [5, 6]: +2.87 fold
- Fold Change mRNA: enigma (LIM domain protein) (AW206786) [5, 6]: −2.32 fold
- Fold Change mRNA: fibrillin 1 precursor (AI264196) [5, 6]: −2.48 fold
- Fold Change mRNA: platelet derived growth factor alpha polypeptide (NM_002607) [5, 6]: +2.53 fold
- Fold Change mRNA: protein tyrosine kinase 7 (NM_002821) [5, 6]: +2.33 fold
- Fold Change mRNA: sortilin 1 (SORTI) (BE742268) [5, 6]: −4.21 fold
- Fold Change mRNA: thrombospondin 1 precursor (AI812030) [5, 6]: −3.39 fold
- Fold Change mRNA: voltage-gated potassium channel activity (AF052169) [5, 6]: +2.48 fold
- Fold Change mRNA: Chemokine (C—X—C motif), receptor 4 (fusin) (AF348491) ([5]; TFPI-2 expressing tumors over mock-transfected tumors, first of two values): −4.21 fold
- Fold Change mRNA: Chemokine (C—X—C motif), receptor 4 (fusin) (AJ224869) ([5]; TFPI-2 expressing tumors over mock-transfected tumors, second of two values): −27.40 fold
- IL-8 down regulated [5, 7]: 6.99 fold
- VEGF-C down regulated [5, 7]: 2.41 fold
- VEGF-R1 (FLT1) down regulated [5, 7]: 2.24 fold
